From the DeepSol protein solubility set

Test: soluble on expression in E. coli; label from the status in PepcDB or PDB records

Row | Sequence | soluble on expression in E. coli
1 | MSLPISLTDFFPIQGGMATRMVIEGANFGTDLSQIKVFFNQKEASILNVKNSIIYLLVPKLPGNDCIVTVKVGNQEARFTRNFQYIENYSVTTIAGQPGTNLFVEGTLAAAQFGPVQHLAIDDENNLFITERNGSDGKGTCSVLNEESGTVTFLFKASDNLNVPTVNAQTQNVYIPLDGGYTFYELNPVNQWIAKSRLVLHPSKEQQEAGMDDFEINWKHSLAFSRYDNMIYTRSYGGDLIKVDPETRVGQKIGNFFPNTDSFIVAHPTQPEILYIAYAAKHVIYTYNIETGEHKLFAGAFGQSGWNDGIATDAEFNSPRQMSLDMEGNIYIADSGNHCIRMIDKNGIVTTPIGQPGEAGYADGSPDMALLNDPRGVAVNSEGDVYIADLGNRCIRKLTLQLEHHHHHH | soluble
2 | MSLSYPWPDAGTALNAISTPMPVIDEDRLAANILRAQSYLDAHGKTFRPHIKTHKIPAIAKQQLQAGAIGINCQKVSEAEVFADAGFEDILITYNILGAAKLSRLKALNARIGRLSVVADSAVTIAGLADTFDAARPLAVLVECDTGGKRCGVQTPEAALALAEQIVSASGLIFRGILTYPAPGGAEMVEKFIRETMALLATKGIDCPVRSSGGSPDFYSAHLVASATEHRAGTYIYNDRSMLRAGHCSAGDLAMHVLATVVSKPTADRAVLDSGSKALTSDLLGFNDYGLLEGYEGAKIISLSEEHAVVDLSGCTGARPEIGDVVQVVPNHTCVVSNLFDRMVFHRNGVVTRVEQVAARGTVWEGHHHHHH | soluble
3 | HGSMEVPVSRAYGCFQEGPEAPISSACREAKRVGGAQAMYDWNAINQTPAGDNHQALVPDGALCGGGKAEFKGFNLARSDWRATSIVPDAKGDYEFVFQATAPHATKYFRLYVTRDGWNPSTPLKWSDLTLFGAYNGNPPLDVGNRYRMTMRLPAGKTGRHIIYSVWKRSDSEEAFYACSDVSFGH | not soluble
4 | MGSDKIHHHHHHVSKPPTIVSVPMPCGSTIEIVAPGSFHIPRVLADGGLKNYEVHSTAAALALMERSEGAFYDIGANIGVFSLCVASALRRRCHAYEPFPDAATVLDELQVRYQLPIAVHRKGVGQTAGQAQFYLSDRSDMSNSLNPNFRKHRGVLDVEVTTLEIELKRDKPAVLKIDTETTEDQVITGGLNQIAHHRPSIIVELLNEAIAGKVRKLLLPLGYRCYAIGGGLRLQELSPIETSLEGDGRNWLFSPNPLDQEFADTFNKWRGVLFSI | not soluble
5 | MGSDKIHHHHHHENLYFQGMRFLAYFGHLNIDVLISVDSIPREGSVNVKDLRPRFGGTAGNFAIVAQKFRIPFDLYSAVGMKTHREYLAMIESMGINTGHVEKFEDESGPICYIATDGKKQVSFMHQGAMAAWAPQLADEYEYVHFSTGPNYLDMAKSIRSKIIFDPSQEIHKYSKDELKKFHEISYMSIFNDHEYRVFREMTGLSSPKVTTIVTNGERGSSLFMDGKKYDFPAIPSSGDTVGAGDSFRAGLYLALYNRRSIEKGMIYGTIIAHHVIDDGIENFSLNMEDLERETENYRRMFTKRS | soluble
6 | MRPLTLHTPKPLVRAGGIPLIEYHLNALRAAGFHQLVINHAWLGQQIEDYLGDGQRFDLSIRYSAEGQPLETGGGIQRALPLLGAEPFVVVNGDVWTDYDFGALRMPLAGLAHLVLIDNPAHHPTGDFSLVDGQVRDDDSAGLRLTYSGIAILHPQLFADCEPGAFKLAPLLREAMHQGLVTGEHFKGRWVDVGTHERLAEVEQLLAETRLEHHHHHH | not soluble
7 | MNEFSILCRVLGSLFYRQPQDPLLVPLFTLIREGKLAANWPLEQDDMLARLQKSCDITQISTDYNALFVGEECAVAPYRSAWVEGAEESEVRAFLTSRGMPLADTPADHIGTLLLAASWLEDQSAEDESEALETLFADYLLPWCNTFLGKVEAHAVTPFWRTLAPLTRDAIGAMWDELQEEDEE | not soluble
8 | MILDADYITEDGKPVIRVFKKEKGEFKIDYDRDFEPYIYALLKDDSAIEDIKKITAERHGTTVRVTRAERVKKKFLGRPVEVWKLYFTHPQDVPAIRDKIREHPAVVDIYEYDIPFAKRYLIDRGLIPMEGDEELRMLAFDIETLYHEGEEFGEGPILMISYADEEGARVITWKNIDLPYVESVSTEKEMIKRFLKVIQEKDPDVLITYNGDNFDFAYLKKRSEMLGVKFILGRDGSEPKIQRMGDRFAVEVKGRIHFDLYPVIRRTINLPTYTLETVYEPVFGQPKEKVYAEEIARAWESGEGLERVARYSMEDAKATYELGKEFFPMEAQLSRLVGQSLWDVSRSSTGNLVEWFLLRKAYERNDVAPNKPDERELARRTESYAGGYVKEPEKGLWENIVYLDYKSLYPSIIITHNVSPDTLNREGCREYDVAPQVGHRFCKDFPGFIPSLLGDLLEERQKVKKKMKATVDPIERKLLDYRQRAIKILANSYYGYYAYANARWYCRECAESVTAWGRQYIETTMREIEEKFGFKVLYADTDGFFATIPGADAETVKNKAKEFLNYINPRLPGLLELEYEGFYRRGFFVTKKKYAVIDEEDKITTRGLEIVRRDWSEIAKETQARVLEAILKHGDVEEAVRIVKEVTEKLSRHEVPPEKLVIYEQITRDLRSYRATGPHVAVAKRLAARGIKIRPGTVISYIVLKGPGRVGDRAIPFDEFDPAKHRYDAEYYIENQVLPAVERILRAFGYRKEDLRYQKTKQAGLGAWLKPKT | soluble
9 | AIAFKRKTAWFSDSVEKEVISFWVSEGGDISSWKTAGYLFSDDASSEDTKRIYGSEDYVKNRATVFHSSFLLACQPRQSVTSVPIGHYVLPPDFVQNEMKAIIGRFIWEKDEQVICEEQINPEVPKDILSGETEDHALRERSSQDDYQTVTSQSKVCSCCEMRQYPVNNMISGYVHIDQMRKYSGELKDFLPSLHGHDVSRSNDPTPPFHRKAV | soluble
10 | MKFKQDFFTQLPEFYSQVYPQGISNPHWLAWSDDAAALIGLHQPTDELLQGLSGNAAVEGASYYAQVYSGHQFGGYTPRLGDGRSIILGEAIGPNGAWDVALKGGGPTPYSRHGDGRAVMRSAVREFLVSEALHHLGVPTTRALAVIGSDMPVWRESQETAAITVRLARSHIRFGHFEFFSHSERGQADKLTQLLNFTLKQHYPHLSCDPAGYKAWFLQVVQDSAKMIAHWQAIGFAHGVMNTDNMSILGDSFDFGPFAFLDTFQEDFICNHSDPDGRYAFGQQPGIGLWNLQRLAQALTPVIASDDLIAALNQYQHALVQHYLALMRAKLGLVQQADSSAEQDQQDLELIGRFTVLMEKNQLDYSHTWRRFGQLDPSSLHSSLRDDFIDLNEFDAWYQVYQARLGKVTDVEAWQQQCNRVNPKYILRNYLAQEAIIAVDEGNLAQLQRLHQVLRQPFTEQIEHEELAKRPPDWGQGLIMSCSS | soluble
11 | SSAKAQVNPAICRYPLGMSGGQIPDEDITASSQWSESTAAKYGRLDSEEGDGAWCPEIPVEPDDLKEFLQIDLHTLHFITLVGTQGRHAGGHGIEFAPMYKINYSRDGTRWISWRNRHGKQVLDGNSNPYDIFLKDLEPPIVARFVRFIPVTDHSMNVCMRVELYGCVWLDGLVSYNAPAGQQFVLPGGSIIYLNDSVYDGAVGYSMTEGLGQLTDGVSGLDDFTQTHEYHVWPGYDYVGWRNESATNGYIEIMFEFDRIRNFTTMKVHCNNMFAKGVKIFKEVQCYFRSEASEWEPNAISFPLVLDDVNPSARFVTVPLHHRMASAIKCQYHFADTWMMFSEITFQSDAAM | not soluble
12 | GMDNVAEYRKLIKQVLTEYDNLSRQSPETNYETCLVFDENHDNYLWLAVDWQGSKRIKYTYVHIRIKNEKIYIEEDYTEEGIATELMRLGVTNNDIVLAFHPPDVRKFTDFATA | soluble
13 | AGLPRNAVTAVVPSPFHHAEAGVLRVPDLKADPRNAAEHTAAIIRELPELVKGARGSLVLFSSRKQMQEVFDGLDRDWRKRVFIQGNLSKQETLNKHKSRVDDGEDSVLFGLASFAEGVDLPGAYCEHVVIAKIPFAVPDDPVEAALAEWIEARGGNPFMEIAVPDASLRLVQACGRLLRTEQDRGTITLLDRRVVTQRYGKAILNALPPFRREIA | not soluble
14 | MATVTKAPKKQIQFADDMQEFTKFPTKTGRRSLSRSISQSSTDSYSSAASYTDSSDDEVSPREKQQTNSKGSSNFCVKNIKQAEFGRREIEIAEQDMSALISLRKRAQGEKPLAGAKIVGCTHITAQTAVLIETLCALGAQCRWSACNIYSTQNEVAAALAEAGVAVFAWKGESEDDFWWCIDRCVNMDGWQANMILDDGGDLTHWVYKKYPNVFKKIRGIVEESVTGVHRLYQLSKAGKLCVPAMNVNDSVTKQKFDNLYCCRESILDGLKRTTDVMFGGKQVVVCGYGEVGKGCCAALKALGAIVYITEIDPICALQACMDGFRVVKLNEVIRQVDVVITCTGNKNVVTREHLDRMKNSCIVCNMGHSNTEIDVTSLRTPELTWERVRSQVDHVIWPDGKRVVLLAEGRLLNLSCSTVPTFVLSITATTQALALIELYNAPEGRYKQDVYLLPKKMDEYVASLHLPSFDAHLTELTDDQAKYLGLNKNGPFKPNYYRY | not soluble
15 | MVRFFIGKEMLFDSHLHLDQLSDENIQQTLAHSKIIGMLAVSTNLNSAKKLLNLKQTYPKKLYIAAGFHPEQQLPSLEEQKKLFQWIDEHHSSISAIGEVGLPHYSKRENPNLDYVPYIELLERFILIAKKWDLPLNLHIVHNDVEIALELLQKHNIQRAHFHWFKTDEKSFQKFFSTPYFASLTPDILWNSKTQYVAQHLSLNRLMIETDSPWQHEGFERAGISEQLLAVLQKLAELKSLPLHSVQKQILLNTQQFYRLLEHHHHHH | not soluble
16 | GPGSMDAGSDEAVQKKMQEFLSKDAMEELRNIGDRTESRVRHGLLPRDYQQQQHQKDYQTANVTHEEEVNSYIQQRRTWRENVFLLRDFEYWRLRAEYYPYVRRGDEQNDNFFIRGIACHPRLSDYPMCRKPIQDYFVCRDKNKILQLFNLCAPMKEQFCACINEVFVKNHERGDKKFNAQRNEYFEEQRNRRLSKMMAHVEDSMEKRKKLQD | not soluble
17 | GMEKKSSYKTVLLGESSVGKSSIVLRLTKDTFHENTNTTIGASFCTYVVNLNDINIKNNSNNEKNNNINSINDDNNVIITNQHNNYNENLCNIKFDIWDTAGQERYASIVPLYYRGATCAIVVFDISNSNTLDRAKTWVNQLKISSNYIIILVANKIDKNKFQVDILEVQKYAQDNNLLFIQTSAKTGTNIKNIFYMLAEEIYKNIIN | soluble
18 | MVGVLFTFFAWCQRDRDVVGTPFVSIRGIFQADHRAWCENRRRELTKPDGWMSLIGLHWLGPKAHYIGSSPDNGIRLAMGPPDMGMIERDGDVVWFTPHAGVPLTVDGQPLRGRVRVFSDADLTPTTIGFDDGKGWLTLLRRGDRFALRVKHVNAPSRLHFTGLEYWPSDPEWRISARYLPNKAGATLSIFNIVGMTANVPNAGVIAFERLGHTYRLQAIRAAGQALFVMFADRTSGHGSYPAGRFLEVDAPDKQGSVVLDFNRAYNPPCAFTLFTTCLLPPSENRLNLAVTAGEKAYHVSTVLPLEHHHHHH | not soluble
19 | MEELFCIGCGIQIQTEDKEKAGFTPAAALKKGMETGELYCQRCFRLRHYNEITDVHITDDEFLRLLHEVGDSDALVVNVIDIFDFNGSIIPGLSRFISGNDVLLVGNKKDILPKSVKDGKVTQWLTERAHEEGLRPLDVMLTSAQNKYAIKDLIGRINELRNGRDVYVVGVTNVGKSTLINAIIQEITGNKDVITTSRFPGTTLDKIEIPLDDGTFIFDTPGIIHRHQMAHYLSPKELKIVSPKKEIKPKTYQLNPEQTLFLGGLARFDFINGERQGFTAFFDNQLELHRTKLAGADAFYDKHVGTLLTPPDKKELTAFPKLVRHEFTIDQKMDIVFSGLGWIRVNGQKDSKAIVAAWAPEGVAVIVRKAII | soluble
